Assay results from PMC7353164.

Target: Tim21HA (yeast) (UniProt P53220)
Assay: co-IP

Sequence of UniProt P53220 (P53220 71-239): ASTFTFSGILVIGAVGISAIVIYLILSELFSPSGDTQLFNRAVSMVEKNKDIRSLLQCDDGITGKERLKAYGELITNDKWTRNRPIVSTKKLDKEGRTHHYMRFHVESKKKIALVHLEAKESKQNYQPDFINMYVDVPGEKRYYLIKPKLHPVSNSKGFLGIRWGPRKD

## Mgr2 G26L (from UniProt Q02889 1-113) (natural protein)
  percent reduction of co-precipitation against wild type: 50%
